This data set is described as follows: soluble fraction after stress (log2 fold change); higher = more stays soluble; pooled small domains, quantitative proteomics. As to conditions: stress: pH 4. The gist of the method:
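High-throughput quantitative proteomics was run on pooled custom libraries of small protein domains following pH 4 stress. Fold changes are on a log2 scale; higher values mean more of a domain remained soluble. The fold change in soluble amount is taken as a measure of aggregation propensity.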

As to “HMDPEIADAVNTIKKYLESHYSEVITRKKIEELVHLNQDHINREFKKQTGYTLMEYVQHYRILMAKKMLRV”, the “soluble fraction (log2)” value was -0.1. On to “HMDPEQLKIAINTKMPFGKYSGRPLLLLPEPYLVWFKQQGFPDSKLGSQLAMMYEVKLNGLEQMLMPLL”, for which the “soluble fraction (log2)” value is -0.506. The value for “HMDPERLDQLQNPDPAVRREAIIALGRSKDLAALPELAKVYKNDPVPELRELARQAGRYIQQENRP” was 0.254; that for “HMDPFVILGISKDSSQSEILEAYKTKRAYYQEHVFDEGDQGAQAARMLGQLDDAYQQAMELSHE” was 0.139; that for “HMDPKISWESDEKLSANIGHYENSIKPLMGNKYLIELSQLKDKIESHPWVARATIKRIFWNKIHIQLESHD” was 0.108. The same measure for “HMDPKWSHVRRLLDDENPIVRKALTEELIRSPEEGLAFLEQVIREPDHLLAKHAHNLLSELGWV”: 0.0459; for “HMDPLGHVIKKKRLQLGMTLRDLAAKAGVHHATIDRIETDQFKVVDPSTLVKIAEALHLDQLYLLSLN”: -0.532. The value for “HMDPLPDEVQEVIDMVDGFKAMDELSEADKADVKAAYDAYNALSAEHKAMVPEHIVTFLNRAYDKLFD” was -1.63; that for “HMDPPVDLTPREQQVLSRIALGMSDKAIAAELGVSHQTVRNHVARIYAKIKVHSRSQAIVWAREKGIP” was -0.109; that for “HMDPSKMKIDELEIATRTATALADGGIKSVAGLIRKSASALKELDGVGDKAIAEITEALEKLGLELKG” was -0.157. Regarding “HMDPSWVPVFNNLRDAILSHQLLPGTRLAEDELSNIYGLGRTVIRSALGALTHEGLLTHIPNRGVHVAKP”, the “soluble fraction (log2)” value is -0.585. The same measure for “HMDPTIAAIRKKLKNWTIVEVHMTREELEQAVIDGKVDVFLSSAGFYRRLVRFGARDLATAMSPAYPD”: -0.151.

With “HMDPTYYFNLYPNPSKDEVSLFTNFTGKINIEILDLAGKSILSDNPISTISLVSLKEGLYLVKVKS”, the “soluble fraction (log2)” value is -0.337.

Take “HMDPYLSGLLQKLAETDKKISFTRLRSEDLDGESREAIYEFIEKYSGRFGVRWLLNEFGLSPSVYYNYLHS”: the “soluble fraction (log2)” value is -0.644. The same measure for “HMDQDLGFLINKYFELGKDYNTLVEIYEKIKEYIASIDKKMLEYTKNFTIEQLKKWLDDGTINNIILTLG”: -0.382. For “HMDQEDAYMQVRQVFDTLLVSELSKRIFAWRFFEGKSFAEWPGAESQKFLYDTFNRILLIISAKIRRKNA”, the “soluble fraction (log2)” value was -0.522. The value for “HMDQHERQQLLIHIAGGEREALAELYQRTRSAVYGLALSYLKNAHDAQDLTRDVYVQVWDRA” was 0.0408; that for “HMDQQTKFKTALAALAASAETKDRKLTKADVKEFLEDMDLGEEQMKLVYAYLASKHIHVEGAE” was -0.0463. The same measure for “HMDQSIDADIINLNFSKNIIKIEENVYYKNNNAKVNADKIEINIETKKLKISMNEQEDEVEIFAK”: -0.399; for “HMDQTIFFGQQKAINNLSTDAGLSATELDEYLKKRYKRPLYQLTQAEGAEIIKGFQDGALSRSSILDYTK”: 0.22; for “HMDRKFFFNEQYEDYINSDLKVKFMNDSGSKKSFQGELTKVTPSDLFLESEKESVKVPFSSIIQANLI”: -0.591. As for “HMDRLTISTLGNGLFRVNGAEAEATVYNLSGNVVKVVPADEVIDLSSLAKGVYIIHVDGEAFKVI”, the “soluble fraction (log2)” value is -0.0808. Regarding “HMDRMFQPETWSKIYQWVMNDPQVPDKEDVLALIRRHFGNFEKLIKLLHYLDGGKPYAYLSEH”, the “soluble fraction (log2)” value came out at 0.411. The value for “HMDRSLYVGDAVGFDSARGLMEIEVKNKFSVVAVSLKKKPSGNFITPLLRMEKKKGEAVTVAPGSGHR” was -0.141; that for “HMDRSQRDQEQAQLIRLVQQAFDDSGQRYGAEKIRITLAEGGIRVSTKRIAAIMQELDLRSI” was 0.251.

For the sequence “HMDRSRAEIDLGHVETAIRTLAEGGMVQEYAIGGRSLKRYKMGELLQLKAELENEINMERRKEKMRQ”, the “soluble fraction (log2)” value came out at 0.184. The same measure for “HMDRVDGWLHDGKLYLRVVDYKTGKKSFDLAELRYGLGLQMLLYLFTLKEEGQMLFGGHEIVPAGVL”: -0.282; for “HMDRVSEITLTRLRDYAADGQVRTATLTHRTNVVTGTLRDGRRFSAGVPPMYGDELTTFLLDNGVRVDSDN”: -0.276; for “HMDSDMGQQLKTLLTVGTFMSSKELKAIAQQLGLKKPTDLKEWVELESGTQRIEGKPTKGYWIKMNDINN”: -0.288. The value for “HMDSGINVWASAEGLTITADKDTTVYVYDIYGRTIHTSEVKAGTSDIAINTKGIVIVKANGYTKKII” was -0.76. The same measure for “HMDSILSIVGGEESYKALLAWAENNISQQELQQLETILKSGNVPAIKRVLVTLMNRFNQAQS”: -0.547; for “HMDSINGEASISRELHGTRFDQAAAILFPEFSRSRLQAWIGAGALTLDGQTARAKDKVTQGQHLVLAAAVE”: -0.536; for “HMDSINIDEETAKLGPNAPQIIDGIKKWGQGLVAKGVWSDEDFDEFKVFAATSSGINALNKIRKYY”: -0.138. Take “HMDSKYLRIFSTLIDEMEKMSPGEQLQSERELSQRFQVSPMTVRRALHKLSTEGYTSAIPGKGTFVRK”: the “soluble fraction (log2)” value is -0.0388.

Turning to “HMDSLELADEVGRVSEALQELRPHQREVLELSLVHGRSHQQISEKTGLALGTVKSHARRGLMRVREMLGV”, the “soluble fraction (log2)” value is -0.162.

“HMDSLIEYENERSLRRLINENLSDYERTVWWLYYAGADAAHIAEQTGRSKRSAENAITRVRRKLRALITQS”: the “soluble fraction (log2)” value is -0.188. For “HMDSNISVSEALEMVDKGSVKEIIVEGEKLYITNQDGKQYTSSKEVGVSLIELMKDSGIDPIKSDVNIIVK”, the “soluble fraction (log2)” value is -0.703. For “HMDSRVRHAVLTTLLGKRIVDDLVEKGELPGTPLVLATAPGLDRDLEQLIAQRVVTALLTTV”, the “soluble fraction (log2)” value is 0.192.

On to “HMDSSALEPIVDQIIADNPKQVEQFQAGKTKVLGFFVGQVMKQTDGTANPKQVNELVAARLKSA”, for which the “soluble fraction (log2)” value stood at 0.0973. The same measure for “HMDSTDSIIHYVRAHRSLEVKNLSFAEARFKKVVELEPNFARGWLGLGEVSILKNNFENASIYLDKALE”: -0.505. The same measure for “HMDSTLTNEIYNELYRAITHQELKPGQNLTLTMLKKQFNVSHTPIREALTRLSADGLVTYHPNKGMKVT”: 0.222; for “HMDSTTHALALVRTLPRDQAEAVLLRVVADLDYADVAEIMGRSPGAVRVLVHRGLRRLEQELATRRT”: -0.426.

Regarding “HMDSVEYRVITGDDVNFRKGPSTDYASLGKLNKGYKVEYISETNSWSKVKYNGQTGYVYSKYVAQT”, the “soluble fraction (log2)” value is -0.262.

For the sequence “HMDSVTVPDISGYSPKAAEDSINNAGLKINEQGLSGSGDGQVVERTSPSAGSKVKKGDSVTVYYSKA”, the “soluble fraction (log2)” value worked out at 0.104. Regarding “HMDTDVFLMDLRGESRDYAEEVLINNNLEVKVIILPFSKRHYPGKVVEMRPSPFTKVKKGRIITLSVAGN”, the “soluble fraction (log2)” value is -1.11.

In the case of “HMDTDWDVSGVTPDQYRLLFSVLGGLAGVKDVGLNPDGLRIIHTPEALPSIEKAFQANGLKLKRNVD”, the “soluble fraction (log2)” value was -0.899. Turning to “HMDTETLIDKYQLNASEAAVLRFMDKNRDSLRDLGIRDVARASYVSTATIVNMAKKIGYSGYSELVFAYGS”, the “soluble fraction (log2)” value is -0.545. The value for “HMDTFSVAIGTKTPDGSSVGEVKTISRDELLLLEDEVAEDPTKEIIFTGGTKDSAQAALDGWIDYNTNLAS” was -0.716; that for “HMDTFYKNLSKKIKTIREKLSFSQEALAKELGISRVAISQIENGDRKISAEEIAKLSRVFNVPTDILLN” was 0.131; that for “HMDTHDVQVPQEGQGLRLDLFLTDHIEGSRSFIQTIIKDGHVILNGKKAKANSRLNEGDYVVWSIPKPE” was -0.37.

In the case of “HMDTHRLNYSDFVAEVQAQRVSKVVIDGYTIVGQRTNGETFETVRPALQDPKLVDDLLQNNVIIEGKQPE”, the “soluble fraction (log2)” value was -0.143. The same measure for “HMDTIVHFLSDGRRITVRIKRNARKNIILRPMAADAVSATIPPWLGRRQLSAWLSEREDLLLSVLSRAA”: -0.736; for “HMDTLESYVKRLEKLEGIADSFKGVSKAFALQAGREIRIMVESEKITDEEAVWLSKDIARRIENELEYPG”: -0.468; for “HMDTNKMLIVNSISNGMKRLQELQDPQLAEIQKTFSGLDEQKATSAQLAQINNIINNRIAEIEG”: 0.191. The same measure for “HMDTNPKVIITMDGVNVRSSASTGSDILFIAEKGEEYELISESGDFYKILYEGNKEGYVASWLVETSE”: -0.022. The value for “HMDTNVKLLSPKQADFFASKLANNQNFSSKFAKVGEDMQPFIERISSELQQDISQVIVYMPYLLESGFKQ” was -0.126. Consider “HMDTNVPVPNVNGMTLNQAKAALEAAGFHVAVNWLGEKSDNNSVISYEPNGSAAKGTTITITVIAQPEQDG”, for which the “soluble fraction (log2)” value is -0.507. Turning to “HMDTPPGLSPEEQAIIDIITTRGDATINELTASIDIPTPRLMGMLVDMEFRSLIAAIPGGRYRI”, the “soluble fraction (log2)” value was -1.42. The value for “HMDTRQFWEQWVADEIRTFEHKDRKQLFGWFEGNKPKLGQMKKLGYGDLLTKVQTSWDEIYQQKE” was 0.29; that for “HMDTRSSARKALDAVNLLLETYGAKAYQHSYEIAGRRQQFQTPGDFMAFRSRLMAEVATEENAARINA” was not below 0.43; that for “HMDTSKIDYSEFITMLDKGEVESVVLKSDTLTVTLKHGTGMAAQTKTVTLMEDLSELTKRLEKAGVKSFDK” was 0.176. The same measure for “HMDTVIAEVTASILNLRRSAGTSSDIIGKLNKGEKVSIIGGSGNWKNVRTSGGITGWVYHEYLSTY”: -0.183; for “HMDTYDSIDSILEERHLSRRKLAQAIGLPPSTFQSMMSRKSGMTLEVLMKIVSYLQVSPDAFW”: 0.061; for “HMDVAWDAIKAKLKEVVDAEDKAHPLNDDQIVKALGESGITIARRTIAKYRDLLGIPPARKRKA”: 0.0412. The value for “HMDVIGLEAAKSAAVKDAGISSPTFTKATLDRDDGRSLYEIEFISGSTKYEYDIDALTGSVLSKKTRALS” was not below 0.43; that for “HMDVKPWERQEGESAKAFEAFTIYAGLGADRSLRAVAQQLGKSKTLMDRWSSTYSWVARAAEYDADLQRK” was not below 0.43; that for “HMDVLFGNRLRQLLDERNISQAHFADRIGVSRSRMNNYVAQRSEPDYATLIRIANTLDTSIDFLLGKS” was -0.45. For “HMDVLIQEIGKRLRIQRLAMGLTQEELAKRAGISLSTLKLMEQQGKGSLQRLAKVAVVLDLDGDLRGLF”, the “soluble fraction (log2)” value was -1.01.
